Patent publication US20190016816A1 (APTEVO RESEARCH AND DEVELOPMENT, published 2019)
One block for each binder: values may come before it.

Key:
human 5T4 on cells [1] = target: T1, human 5T4 on cells (human, UniProt Q13641 32-420); experiment: flow cytometry, TF-1 cells, PE goat anti-human Fc
T1 construct: also called TPBG; hu5T4
T1 sequence: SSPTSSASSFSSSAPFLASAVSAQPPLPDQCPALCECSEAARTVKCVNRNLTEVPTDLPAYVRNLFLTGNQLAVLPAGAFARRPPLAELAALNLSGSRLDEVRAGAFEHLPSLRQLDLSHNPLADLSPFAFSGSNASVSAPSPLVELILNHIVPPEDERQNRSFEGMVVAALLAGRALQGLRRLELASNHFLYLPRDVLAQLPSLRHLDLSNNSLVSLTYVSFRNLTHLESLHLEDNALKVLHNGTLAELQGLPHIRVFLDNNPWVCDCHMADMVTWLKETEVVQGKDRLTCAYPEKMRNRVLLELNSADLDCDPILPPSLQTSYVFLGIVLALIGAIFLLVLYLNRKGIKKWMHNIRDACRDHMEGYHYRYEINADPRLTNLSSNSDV
Experimental: (§1) A 3-fold titration of ALG.APV-210 construct (ranging from 100 nM to 0.14 nM) was incubated with the human 5T4-expressing cell lines for 40 minutes in FACS buffer at 4° C., washed 3 times, and detected with PE-labeled, goat-anti-human Fc secondary antibody (Jackson ImmunoResearch). Binding of ALG.APV-210 was detected by flow cytometry. All samples were run in duplicates. Nonlinear regression analysis to determine EC₅₀ values was performed in GraphPad Prism 6® graphing and statistics software.

[2] = target: T2, recombinant human 5T4 extracellular domain (ECD) (human); experiment: SPR (Biacore T200, 25 C), bispecific captured on anti-human IgG, monomeric ECD injected, 1:1 fit
T2 construct: Monomeric, made in HEK-293; also called Hu 5T4; monomeric 5T4 ectodomain
T2 chain: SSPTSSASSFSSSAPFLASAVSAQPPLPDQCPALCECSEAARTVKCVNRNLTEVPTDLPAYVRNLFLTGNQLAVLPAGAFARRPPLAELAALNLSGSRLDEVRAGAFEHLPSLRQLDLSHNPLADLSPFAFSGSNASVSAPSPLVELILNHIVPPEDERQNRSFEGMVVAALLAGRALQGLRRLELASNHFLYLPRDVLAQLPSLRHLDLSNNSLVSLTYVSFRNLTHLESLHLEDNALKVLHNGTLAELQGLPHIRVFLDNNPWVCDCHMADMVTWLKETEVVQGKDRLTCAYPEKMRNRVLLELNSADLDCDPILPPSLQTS
Experimental: Goat anti-human IgG F(ab′)2 fragment (Jackson ImmunoResearch) at 20 μg/mL in 10 mM sodium acetate (pH 4.5) was immobilized at a density of 2000 response units (RU) onto the flow cell of a CM5 research-grade sensor chip (GE) by standard amine coupling chemistry. Each bispecific variant at 200 nM in HBS-EP+ buffer was captured in the flow cell with the immobilized anti-human IgG at a flow rate of 50 μL/min for 60 sec to reach ˜500 RU response, leaving one flow cell surface unmodified as the reference. Following a 30 sec stabilization period, four different concentrations of each ECD (0, 20, 60, and 180 nM) were injected at 50 μL/min for either 120 sec followed by a 240 sec dissociation period (for 5T4) or 90 sec followed by a 180 sec dissociation period (for 4-1BB). Regeneration was achieved by duplicate injections of 10 mM glycine (pH 1.5) at a flow rate of 50 μL/min for 30 sec followed by HBS-EP+ buffer stabilization for 1 min.
Sensorgrams obtained from kinetic SPR measurements were analyzed by the double subtraction method. The signal from the reference flow cell was subtracted from the analyte binding response obtained from flow cells with immobilized or captured ligands. Buffer reference responses were then averaged from multiple injections. The averaged buffer reference responses were then subtracted from analyte binding responses, and the final double-referenced data were analyzed with Biacore T200 Evaluation software (2.0, GE), globally fitting data to derive kinetic parameters. All sensorgrams were fitted using a simple one-to-one binding model.

human 5T4 on cells [3] = target: T1, human 5T4 on cells; experiment: flow cytometry, CHO/5T4 cells, PE goat anti-human Fc
Experimental: as §1

[4] = target: T3, cynomolgus CD137 on cells (cynomolgus macaque, UniProt A9YYE7 24-254); experiment: flow cytometry, CHO-K1 cells expressing cynomolgus CD137, PE anti-human IgG Fc secondary, MFI (median)
T3 construct: whole, on cells; also called CHO-K1/cynomolgus CD137 cell line; cynomolgus monkey CD137 on CD3-stimulated primary CD8 T cells
T3 sequence (A9YYE7 entry or part of it): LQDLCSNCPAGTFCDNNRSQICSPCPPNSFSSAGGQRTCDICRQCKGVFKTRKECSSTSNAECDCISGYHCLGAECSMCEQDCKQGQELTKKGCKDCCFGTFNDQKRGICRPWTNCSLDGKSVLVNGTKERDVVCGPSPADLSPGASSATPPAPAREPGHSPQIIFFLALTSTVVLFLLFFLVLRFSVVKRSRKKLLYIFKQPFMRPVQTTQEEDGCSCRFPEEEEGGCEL
Experimental: Binding studies on CHO-K1 cells lines expressing CD137 were performed by standard flow cytometry-based staining procedures. CHO-K1 cells (generated by Alligator) were transfected with human or cynomolgus macaque CD137. A typical experiment would label approximately 100,000 cells per well, in 96-well plates, with a range of 100 nM to 0.05 nM binding molecule in 50 μL of saline buffer with 2% BSA and 2 mM EDTA, for 30 min on ice, followed by washes and incubation with PE-labeled secondary antibody, goat anti-human IgG Fcγ ([…]), for 20 minutes on ice. Signal from bound molecules was detected using a LSR-II™ or a Symphony A3 flow cytometer (BD Biosciences) and analyzed by FlowJo flow cytometry analysis software. Median fluorescence intensity (MFI-median) of bound molecules on live cells was determined after exclusion of doublets cells. Nonlinear regression analysis to determine EC₅₀ values was performed in GraphPad Prism 6® graphing and statistics software.

EC50 (human 5T4 on cells [1]): 71 nM | Kd [2]: 79 nM | koff [2]: 0.0012 s⁻¹ | kon [2]: 15000 M⁻¹ s⁻¹ | EC50 (human 5T4 on cells [3]): 10 nM
B1: ALG.APV-210 (bispecific antibody)
chain: EVQLLESGGGLVQPGGSLRLSCAASGFTFSHGSMYWVRQAPGKGLEWVSSISSGSGSTYYADSVKGRFTISHDNSKNTLYLQMNSLRAEDTAVYYCARSSYYGSYYSIDYWGQGTLVTVSSGGGGSGGGGSGGGGSGGGGSDIQMTQSPSSLSASVGDRVTITCRASQSISSYLNWYQQKPGKAPKLLIYAASSLQSGVPSRFSGSGSGTDFTLTISSLQPEDFATYYCQQYYDNLPTFGQGTKLEIKEPKSSDKTHTCPPCPAPEAAGAPSVFLFPPKPKDTLMISRTPEVTCVVVDVSHEDPEVKFNWYVDGVEVHNAKTKPREEQYNSTYRVVSVLTVLHQDWLNGKEYKCAVSNKALPAPIEKTISKAKGQPREPQVYTLPPSRDELTKNQVSLTCLVKGFYPSDIAVEWESNGQPENNYKTTPPVLDSDGSFFLYSKLTVDKSRWQQGNVFSCSVMHEALHNHYTQKSLSLSPGSGGGGSGGGGSGGGGSPSEVQLLESGGGLVQPGGSLRLSCAASGFTFSSYAMSWVRQAPGKCLEWVSAISGSGGSTYYADSVKGRFTISRDNSKNTLYLQMNSLRAEDTAVYYCARYYGGYYSAWMDYWGQGTLVTVSSGGGGSGGGGSGGGGSGGGGSDIQMTQSPSSLSASVGDRVTITCRASQSISSFLNWYQQKPGKAPKLLIYAASSLQSGVPSRFSGSGSGTDFTLTISSLQPEDSATYYCQQTYGYLHTFGCGTKLEIKR
notes: Optimized ADAPTIR scFv-Fc-scFv homodimer with stabilizing disulfide in the 1210 scFv; also called 5T4-CD137 bispecific antibody

EC50 [4]: 1.7 nM | Kd [2]: 35 nM | koff [2]: 0.00072 s⁻¹ | kon [2]: 21000 M⁻¹ s⁻¹
B2: ALG.APV-187 (bispecific antibody)
chain: EVQLLESGGGLVQPGGSLRLSCAASGFTFSHGSMYWVRQAPGKGLEWVSSISSGSGSTYYADSVKGRFTISHDNSKNTLYLQMNSLRAEDTAVYYCARSSYYGSYYSIDYWGQGTLVTVSSGGGGSGGGGSGGGGSGGGGSDIQMTQSPSSLSASVGDRVTITCRASQSISSYLNWYQQKPGKAPKLLIYAASSLQSGVPSRFSGSGSGTDFTLTISSLQPEDFATYYCQQYYDNLPTFGQGTKLEIKSSEPKSSDKTHTCPPCPAPEAAGAPSVFLFPPKPKDTLMISRTPEVTCVVVDVSHEDPEVKFNWYVDGVEVHNAKTKPREEQYNSTYRVVSVLTVLHQDWLNGKEYKCAVSNKALPAPIEKTISKAKGQPREPQVYTLPPSRDELTKNQVSLTCLVKGFYPSDIAVEWESNGQPENNYKTTPPVLDSDGSFFLYSKLTVDKSRWQQGNVFSCSVMHEALHNHYTQKSLSLSPGSGGGGSGGGGSGGGGSPSEVQLLESGGGLVQPGGSLRLSCAASGFTFSSYAMSWVRQAPGKCLEWVSAISGSGGSTYYADSVKGRFTISRDNSKNTLYLQMNSLRAEDTAVYYCARYYGGYYSAWMDYWGQGTLVTVSSGGGGSGGGGSGGGGSGGGGSDIQMTQSPSSLSASVGDRVTITCRASQSISSFLNWYQQKPGKAPKLLIYAASSLQSGVPSRFSGSGSGTDFTLTISSLQPEDSATYYCQQTYGYLHTFGCGTKLEIKR
notes: Optimized ADAPTIR scFv-Fc-scFv homodimer with stabilizing disulfide in the 1210 scFv
